This experiment addresses Env (gp120) of HIV-1 JRCSF.N160K (HIV-1), P20871. Put plainly: cell-based or functional assay.

B1: CH01 (antibody, V domains shown)
VH: EVQLVESGANVVRPGGSLRLSCKASGFIFENFGFSWVRQAPGKGLQWVAGLNWNGGDTRYADSVKGRFRMSRDNSRNFVYLDMDKVGVDDTAFYYCARGTDYTIDDAGIHYQGSGTFWYFDLWGRGTLVSVSS
VL: EIVLTQSPGTLSLSPGERATLSCRASHNVHPKYFAWYQQKPGQSPRLLIYGGSTRAAGIPGKFSGSGSGTDFTLTISRVDPEDFAVYYCQQYGGSPYTFGQGTKVEI
In turn, B1 returned an IC50 (virus neutralization) of over 50 µg/mL and an IC80 (virus neutralization) of over 50 µg/mL.

For the origin of these results see patent US20160271244A1.
